Usually stoichiometry N stands for a count of units in the complex or per binding partner.

This assay deals with RSV F DS-Cav1 (human respiratory syncytial virus | bacteriophage T4) (UniProt P03420). Kind of assay: SEC.

For “RSV F DS-Cav1 (from UniProt P03420 26-109; P03420 137-513) (domain or fragment)”, the stoichiometry N was found to be 3.

The record behind these values is publication PMC5016229.
